Results reported in US20220220185A1 (CELL NETWORKS, published 2022).
Values belong to the binder of their own block, whether it stands above or below them.

How the values were obtained:
Sm-Gβ1 with untagged Gγ2 [1] = target: T1, Sm-Gβ1 with untagged Gγ2 (human, UniProt P62873 2-340; P59768 2-68); test: NanoBiT split-luciferase complementation in HEK293 cells (NanoBiT-G13: Gα13-Lg, Sm-Gβ1, Gγ2; pairing from paragraph 252)
T1 construct: whole, on cells; also called Sm-Gβγ; SmBiT-fused Gβ1 subunit and native Gγ2 subunit
Protocol: (§1) To complement the inventive chimeric G-protein-based TGFα shedding assay, the inventors made an additional inventive assay in which dissociation of the Gα subunit from the Gβγ subunits, a critical process of G-protein activation, is measured via a luciferase complementation system. Bioluminescence Resonance Energy Transfer (BRET) between a Renilla luciferase-inserted Gα subunit and a GFP10-fused Gβ or Gγ subunit was previously developed to measure Gα-Gβγ dissociation (Gales et al., 2005). Here, they replaced the BRET pair with a split luciferase (NanoLuc Binary Technology; NanoBiT) (Dixon et al., 2016). […] They generated a series of Gα-Lg, Sm-Gβ and Sm-Gγ subunits and optimized a combination.
(§2) Plasmid transfection was performed in a 6-well plate with a mixture of 100 ng Gα-Lg-encoding plasmid, 500 ng Sm-Gβ-encoding plasmid, 500 ng untagged Gγ₂-encoding plasmid, 200 ng GPCR-encoding plasmid with or without 100 ng RIC8-encoding plasmid (per well, hereafter).

Sm-Gβ1 with untagged Gγ2 [2] = target: T1, Sm-Gβ1 with untagged Gγ2; test: NanoBiT split-luciferase complementation in HEK293 cells (NanoBiT-G12: Gα12-Lg, Sm-Gβ1, Gγ2; pairing from paragraph 252)
Protocol: as §1, §2

Sm-Gβ1 with untagged Gγ2 [3] = target: T1, Sm-Gβ1 with untagged Gγ2; test: NanoBiT split-luciferase complementation in HEK293 cells (NanoBiT-Gs: Gαs-Lg, Sm-Gβ1, Gγ2; pairing from paragraph 252)
Protocol: as §1, §2

Sm-Gβ1 with untagged Gγ2 [4] = target: T1, Sm-Gβ1 with untagged Gγ2; test: NanoBiT split-luciferase complementation in HEK293 cells (NanoBiT-Gq: Gαq-Lg, Sm-Gβ1, Gγ2; pairing from paragraph 252)
Protocol: as §1, §2

T1 sequence (P62873 other isoform, or with tags, fused parts or gaps, chain 1 of 2): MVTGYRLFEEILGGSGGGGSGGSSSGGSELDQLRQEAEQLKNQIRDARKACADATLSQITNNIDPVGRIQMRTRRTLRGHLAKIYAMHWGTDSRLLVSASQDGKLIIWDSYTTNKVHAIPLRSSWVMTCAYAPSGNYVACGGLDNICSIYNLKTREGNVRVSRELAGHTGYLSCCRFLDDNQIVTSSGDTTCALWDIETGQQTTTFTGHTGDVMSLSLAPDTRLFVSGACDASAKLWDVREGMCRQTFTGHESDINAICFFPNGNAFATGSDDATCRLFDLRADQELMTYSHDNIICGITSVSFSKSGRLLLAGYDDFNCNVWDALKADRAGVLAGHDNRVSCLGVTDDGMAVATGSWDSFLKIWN
T1 sequence (P59768 2-68, chain 2 of 2): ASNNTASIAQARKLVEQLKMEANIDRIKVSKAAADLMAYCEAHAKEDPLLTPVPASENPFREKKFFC

B2: Gα12-Lg (other, human, UniProt Q03113 1-381, looked up)
chain: MSGVVRTLSRCLLPAEAGGARERRAGSGARDAEREARRRSRDIDALLARERRAVRRLVKILLLGAGESGKSTFLKQMRIIHGREFDQKALLEFRDTIFDNILKGSRVLVDARDKLGIPWQYSENEKHGMFLMAFENKAGLPVEPATFQLYVPALSALWRDSGIREAFSRRSEFQLGESVKYFLDNLDRIGQLNYFPSKQDILLARKATKGIVEHDFVIKKIPFKMVDVGGQRSQRQKWFQCFDGITSILFMVSSSEYDQVLMEDRRTNRLVESMNIFETIVNNKLFFNVSIILFLNKMDLLVEKVKTVSIKKHFPDFRGDPHRLEDVQRYLVQCFDRKRRNRSKPLFHHFTTAIDTENVRFVFHAVKDTILQENLKDIMLQ
notes: whole, on cells; the LgBiT insert is not placed; also called NanoBiT-G12 (Gα subunit); G12
binding result (Sm-Gβ1 with untagged Gγ2 [2]): binds

B4: Gαq-Lg (other, human, UniProt P50148 1-359, looked up)
chain: MTLESIMACCLSEEAKEARRINDEIERQLRRDKRDARRELKLLLLGTGESGKSTFIKQMRIIHGSGYSDEDKRGFTKLVYQNIFTAMQAMIRAMDTLKIPYKYEHNKAHAQLVREVDVEKVSAFENPYVDAIKSLWNDPGIQECYDRRREYQLSDSTKYYLNDLDRVADPAYLPTQQDVLRVRVPTTGIIEYPFDLQSVIFRMVDVGGQRSERRKWIHCFENVTSIMFLVALSEYDQVLVESDNENRMEESKALFRTIITYPWFQNSSVILFLNKKDLLEEKIMYSHLVDYFPEYDGPQRDAQAAREFILKMFVDLNPDSDKIIYSHFTCATDTENIRFVFAAVKDTILQLNLKEYNLV
notes: whole, on cells; the LgBiT insert is not placed; also called NanoBiT-Gq (Gα subunit); Gq
binding result (Sm-Gβ1 with untagged Gγ2 [4]): binds

The next lines start with the values.

binding result (Sm-Gβ1 with untagged Gγ2 [1]): binds
B1: Gα13-Lg (other, human, UniProt Q14344 1-377, looked up)
chain: MADFLPSRSVLSVCFPGCLLTSGEAEQQRKSKEIDKCLSREKTYVKRLVKILLLGAGESGKSTFLKQMRIIHGQDFDQRAREEFRPTIYSNVIKGMRVLVDAREKLHIPWGDNSNQQHGDKMMSFDTRAPMAAQGMVETRVFLQYLPAIRALWADSGIQNAYDRRREFQLGESVKYFLDNLDKLGEPDYIPSQQDILLARRPTKGIHEYDFEIKNVPFKMVDVGGQRSERKRWFECFDSVTSILFLVSSSEFDQVLMEDRLTNRLTESLNIFETIVNNRVFSNVSIILFLNKTDLLEEKVQIVSIKDYFLEFEGDPHCLRDVQKFLVECFRNKRRDQQQKPLYHHFTTAINTENIRLVFRDVKDTILHDNLKQLMLQ
notes: whole, on cells; the LgBiT insert is not placed; also called NanoBiT-G13 (Gα subunit); G13

binding result (Sm-Gβ1 with untagged Gγ2 [3]): binds
B3: Gαs-Lg (other, human, UniProt P63092 2-394, looked up)
chain: GCLGNSKTEDQRNEEKAQREANKKIEKQLQKDKQVYRATHRLLLLGAGESGKSTIVKQMRILHVNGFNGEGGEEDPQAARSNSDGEKATKVQDIKNNLKEAIETIVAAMSNLVPPVELANPENQFRVDYILSVMNVPDFDFPPEFYEHAKALWEDEGVRACYERSNEYQLIDCAQYFLDKIDVIKQADYVPSDQDLLRCRVLTSGIFETKFQVDKVNFHMFDVGGQRDERRKWIQCFNDVTAIIFVVASSSYNMVIREDNQTNRLQEALNLFKSIWNNRWLRTISVILFLNKQDLLAEKVLAGKSKIEDYFPEFARYTTPEDATPEPGEDPRVTRAKYFIRDEFLRISTASGDGRHYCYPHFTCAVDTENIRRVFNDCRDIIQRMHLRQYELL
notes: whole, on cells; the LgBiT insert is not placed; also called NanoBiT-Gs (Gα subunit); Gs
